Patent US20250262210A1 (TRUSTEES OF COLUMBIA UNIVERSITY IN THE CITY OF NEW YORK, published 2025)

Experiments:
Assay in all cases: IP/MS, LZTR1 R810W-FLAG, U87
RTTN = RTTN (human, UniProt Q86VV8 1-2226, limits assumed)
How it was run: (§1)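 Extracted peptides in 3% acetonitrile/0.1% formic acid ran on a 50 cm C18 column into an Orbitrap Fusion, with MaxQuant identification and spectral counting.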

AP4E1 = target: T1, AP4E1 (human, UniProt Q9UPM8 1-1137, limits assumed)
T1 sequence (looked up): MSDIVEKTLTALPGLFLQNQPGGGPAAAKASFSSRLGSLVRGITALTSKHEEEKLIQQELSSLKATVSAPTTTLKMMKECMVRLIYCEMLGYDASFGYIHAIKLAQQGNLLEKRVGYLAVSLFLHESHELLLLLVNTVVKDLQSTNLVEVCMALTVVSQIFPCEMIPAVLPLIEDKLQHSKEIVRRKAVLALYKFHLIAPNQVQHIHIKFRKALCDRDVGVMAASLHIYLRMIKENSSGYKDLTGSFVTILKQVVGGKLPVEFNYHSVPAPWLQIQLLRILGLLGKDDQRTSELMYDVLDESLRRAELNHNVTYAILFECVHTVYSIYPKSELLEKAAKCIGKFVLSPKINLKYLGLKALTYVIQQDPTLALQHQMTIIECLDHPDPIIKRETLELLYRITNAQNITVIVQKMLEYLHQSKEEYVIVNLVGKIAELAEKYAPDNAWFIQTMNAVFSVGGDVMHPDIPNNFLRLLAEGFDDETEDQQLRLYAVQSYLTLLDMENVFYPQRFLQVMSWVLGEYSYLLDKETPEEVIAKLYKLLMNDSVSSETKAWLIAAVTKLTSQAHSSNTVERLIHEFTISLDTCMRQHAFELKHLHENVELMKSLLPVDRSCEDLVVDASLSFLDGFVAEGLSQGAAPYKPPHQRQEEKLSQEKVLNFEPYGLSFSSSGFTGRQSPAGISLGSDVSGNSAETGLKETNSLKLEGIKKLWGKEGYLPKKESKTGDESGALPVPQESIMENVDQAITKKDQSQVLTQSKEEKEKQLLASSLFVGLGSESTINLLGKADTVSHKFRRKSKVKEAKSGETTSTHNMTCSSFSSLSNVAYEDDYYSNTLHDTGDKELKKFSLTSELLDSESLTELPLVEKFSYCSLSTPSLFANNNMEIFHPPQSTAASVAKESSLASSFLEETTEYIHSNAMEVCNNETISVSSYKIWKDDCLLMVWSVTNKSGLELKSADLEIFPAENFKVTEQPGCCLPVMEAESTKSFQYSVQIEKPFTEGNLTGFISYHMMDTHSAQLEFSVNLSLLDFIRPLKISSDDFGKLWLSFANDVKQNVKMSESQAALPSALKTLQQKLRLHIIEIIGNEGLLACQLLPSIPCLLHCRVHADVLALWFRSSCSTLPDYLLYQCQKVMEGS
How it was run: as §1

DIP2B = DIP2B (human, UniProt Q9P265 1-1576)
How it was run: as §1

PARP10 = target: T2, PARP10 (human, UniProt Q53GL7 1-1025)
T2 sequence (looked up): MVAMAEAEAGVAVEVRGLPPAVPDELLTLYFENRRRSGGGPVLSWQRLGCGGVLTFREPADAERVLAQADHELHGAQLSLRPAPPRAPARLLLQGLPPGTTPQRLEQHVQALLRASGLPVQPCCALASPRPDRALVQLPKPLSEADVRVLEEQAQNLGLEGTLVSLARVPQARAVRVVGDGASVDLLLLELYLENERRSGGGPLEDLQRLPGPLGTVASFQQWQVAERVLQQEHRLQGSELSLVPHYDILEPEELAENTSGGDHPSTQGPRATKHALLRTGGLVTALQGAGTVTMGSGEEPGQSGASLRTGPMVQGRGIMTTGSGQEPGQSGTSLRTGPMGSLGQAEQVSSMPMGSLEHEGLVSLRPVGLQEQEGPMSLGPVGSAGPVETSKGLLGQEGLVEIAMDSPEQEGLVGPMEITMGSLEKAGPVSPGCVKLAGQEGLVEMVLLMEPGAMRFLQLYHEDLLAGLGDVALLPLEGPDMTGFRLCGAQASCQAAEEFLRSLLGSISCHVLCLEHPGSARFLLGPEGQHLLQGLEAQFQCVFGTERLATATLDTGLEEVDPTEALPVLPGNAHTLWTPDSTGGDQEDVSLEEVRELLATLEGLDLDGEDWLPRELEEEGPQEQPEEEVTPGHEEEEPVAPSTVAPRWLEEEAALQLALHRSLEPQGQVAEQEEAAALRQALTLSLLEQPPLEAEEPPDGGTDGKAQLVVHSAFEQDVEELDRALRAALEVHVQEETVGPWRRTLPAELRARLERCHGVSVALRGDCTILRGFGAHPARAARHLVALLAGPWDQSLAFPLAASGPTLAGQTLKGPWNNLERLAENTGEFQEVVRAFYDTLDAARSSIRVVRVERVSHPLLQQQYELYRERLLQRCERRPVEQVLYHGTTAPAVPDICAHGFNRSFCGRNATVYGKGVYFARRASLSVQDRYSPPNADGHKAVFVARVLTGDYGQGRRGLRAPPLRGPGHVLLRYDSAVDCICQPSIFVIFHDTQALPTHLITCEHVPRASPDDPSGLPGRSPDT
How it was run: as §1

THADA = THADA (human, UniProt Q6YHU6 1-1953, limits assumed)
Chain of THADA (Q6YHU6 whole entry): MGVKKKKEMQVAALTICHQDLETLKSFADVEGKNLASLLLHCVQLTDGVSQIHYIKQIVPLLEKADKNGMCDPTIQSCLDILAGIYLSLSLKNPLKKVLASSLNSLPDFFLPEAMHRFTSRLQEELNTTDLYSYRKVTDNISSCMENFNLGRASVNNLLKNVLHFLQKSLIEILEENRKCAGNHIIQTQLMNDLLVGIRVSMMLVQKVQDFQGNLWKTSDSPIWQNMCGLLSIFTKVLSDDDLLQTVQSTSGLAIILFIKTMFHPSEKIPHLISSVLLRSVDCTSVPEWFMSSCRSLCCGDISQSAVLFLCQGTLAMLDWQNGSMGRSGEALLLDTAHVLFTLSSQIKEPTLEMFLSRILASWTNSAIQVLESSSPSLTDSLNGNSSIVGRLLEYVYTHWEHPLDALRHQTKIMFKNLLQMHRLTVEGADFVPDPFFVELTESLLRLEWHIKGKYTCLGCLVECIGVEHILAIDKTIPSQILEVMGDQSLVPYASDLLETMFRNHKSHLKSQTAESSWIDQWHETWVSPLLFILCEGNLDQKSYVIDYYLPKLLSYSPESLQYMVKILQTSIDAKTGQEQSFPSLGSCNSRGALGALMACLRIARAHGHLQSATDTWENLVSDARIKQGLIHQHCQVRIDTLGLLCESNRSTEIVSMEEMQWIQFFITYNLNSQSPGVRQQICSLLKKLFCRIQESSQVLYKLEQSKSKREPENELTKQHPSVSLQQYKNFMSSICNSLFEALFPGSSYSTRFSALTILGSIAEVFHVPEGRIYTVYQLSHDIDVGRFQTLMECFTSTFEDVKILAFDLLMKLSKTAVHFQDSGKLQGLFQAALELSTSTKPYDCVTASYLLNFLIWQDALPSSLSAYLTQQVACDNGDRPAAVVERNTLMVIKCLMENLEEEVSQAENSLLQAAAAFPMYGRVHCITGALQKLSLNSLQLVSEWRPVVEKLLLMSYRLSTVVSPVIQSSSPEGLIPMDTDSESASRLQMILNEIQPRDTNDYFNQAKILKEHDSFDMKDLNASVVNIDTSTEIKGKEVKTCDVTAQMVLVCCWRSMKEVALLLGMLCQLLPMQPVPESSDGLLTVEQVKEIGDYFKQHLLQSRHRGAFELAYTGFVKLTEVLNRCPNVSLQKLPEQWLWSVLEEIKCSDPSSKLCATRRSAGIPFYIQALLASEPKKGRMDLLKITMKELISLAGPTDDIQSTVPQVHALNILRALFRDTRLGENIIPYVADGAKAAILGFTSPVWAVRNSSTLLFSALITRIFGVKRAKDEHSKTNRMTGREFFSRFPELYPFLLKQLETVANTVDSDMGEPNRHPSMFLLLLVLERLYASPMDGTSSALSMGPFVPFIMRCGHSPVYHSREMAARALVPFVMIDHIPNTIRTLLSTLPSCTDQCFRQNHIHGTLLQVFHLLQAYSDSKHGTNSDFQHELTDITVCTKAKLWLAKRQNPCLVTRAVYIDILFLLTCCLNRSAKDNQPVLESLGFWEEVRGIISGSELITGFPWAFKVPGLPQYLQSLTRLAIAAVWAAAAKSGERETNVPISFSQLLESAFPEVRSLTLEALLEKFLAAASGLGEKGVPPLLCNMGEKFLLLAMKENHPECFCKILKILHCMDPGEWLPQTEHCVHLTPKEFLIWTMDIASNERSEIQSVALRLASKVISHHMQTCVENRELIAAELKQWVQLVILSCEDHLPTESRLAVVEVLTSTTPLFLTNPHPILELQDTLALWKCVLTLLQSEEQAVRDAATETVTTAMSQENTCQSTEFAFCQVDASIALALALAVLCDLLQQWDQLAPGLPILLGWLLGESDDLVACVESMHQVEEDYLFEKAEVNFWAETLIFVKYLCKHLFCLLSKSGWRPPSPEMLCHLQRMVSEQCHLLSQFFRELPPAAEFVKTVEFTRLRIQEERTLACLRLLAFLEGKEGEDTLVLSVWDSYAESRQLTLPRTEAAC
How it was run: as §1

Measured: binding result

Chain of RTTN (Q86VV8 whole entry, the tested form may be a part): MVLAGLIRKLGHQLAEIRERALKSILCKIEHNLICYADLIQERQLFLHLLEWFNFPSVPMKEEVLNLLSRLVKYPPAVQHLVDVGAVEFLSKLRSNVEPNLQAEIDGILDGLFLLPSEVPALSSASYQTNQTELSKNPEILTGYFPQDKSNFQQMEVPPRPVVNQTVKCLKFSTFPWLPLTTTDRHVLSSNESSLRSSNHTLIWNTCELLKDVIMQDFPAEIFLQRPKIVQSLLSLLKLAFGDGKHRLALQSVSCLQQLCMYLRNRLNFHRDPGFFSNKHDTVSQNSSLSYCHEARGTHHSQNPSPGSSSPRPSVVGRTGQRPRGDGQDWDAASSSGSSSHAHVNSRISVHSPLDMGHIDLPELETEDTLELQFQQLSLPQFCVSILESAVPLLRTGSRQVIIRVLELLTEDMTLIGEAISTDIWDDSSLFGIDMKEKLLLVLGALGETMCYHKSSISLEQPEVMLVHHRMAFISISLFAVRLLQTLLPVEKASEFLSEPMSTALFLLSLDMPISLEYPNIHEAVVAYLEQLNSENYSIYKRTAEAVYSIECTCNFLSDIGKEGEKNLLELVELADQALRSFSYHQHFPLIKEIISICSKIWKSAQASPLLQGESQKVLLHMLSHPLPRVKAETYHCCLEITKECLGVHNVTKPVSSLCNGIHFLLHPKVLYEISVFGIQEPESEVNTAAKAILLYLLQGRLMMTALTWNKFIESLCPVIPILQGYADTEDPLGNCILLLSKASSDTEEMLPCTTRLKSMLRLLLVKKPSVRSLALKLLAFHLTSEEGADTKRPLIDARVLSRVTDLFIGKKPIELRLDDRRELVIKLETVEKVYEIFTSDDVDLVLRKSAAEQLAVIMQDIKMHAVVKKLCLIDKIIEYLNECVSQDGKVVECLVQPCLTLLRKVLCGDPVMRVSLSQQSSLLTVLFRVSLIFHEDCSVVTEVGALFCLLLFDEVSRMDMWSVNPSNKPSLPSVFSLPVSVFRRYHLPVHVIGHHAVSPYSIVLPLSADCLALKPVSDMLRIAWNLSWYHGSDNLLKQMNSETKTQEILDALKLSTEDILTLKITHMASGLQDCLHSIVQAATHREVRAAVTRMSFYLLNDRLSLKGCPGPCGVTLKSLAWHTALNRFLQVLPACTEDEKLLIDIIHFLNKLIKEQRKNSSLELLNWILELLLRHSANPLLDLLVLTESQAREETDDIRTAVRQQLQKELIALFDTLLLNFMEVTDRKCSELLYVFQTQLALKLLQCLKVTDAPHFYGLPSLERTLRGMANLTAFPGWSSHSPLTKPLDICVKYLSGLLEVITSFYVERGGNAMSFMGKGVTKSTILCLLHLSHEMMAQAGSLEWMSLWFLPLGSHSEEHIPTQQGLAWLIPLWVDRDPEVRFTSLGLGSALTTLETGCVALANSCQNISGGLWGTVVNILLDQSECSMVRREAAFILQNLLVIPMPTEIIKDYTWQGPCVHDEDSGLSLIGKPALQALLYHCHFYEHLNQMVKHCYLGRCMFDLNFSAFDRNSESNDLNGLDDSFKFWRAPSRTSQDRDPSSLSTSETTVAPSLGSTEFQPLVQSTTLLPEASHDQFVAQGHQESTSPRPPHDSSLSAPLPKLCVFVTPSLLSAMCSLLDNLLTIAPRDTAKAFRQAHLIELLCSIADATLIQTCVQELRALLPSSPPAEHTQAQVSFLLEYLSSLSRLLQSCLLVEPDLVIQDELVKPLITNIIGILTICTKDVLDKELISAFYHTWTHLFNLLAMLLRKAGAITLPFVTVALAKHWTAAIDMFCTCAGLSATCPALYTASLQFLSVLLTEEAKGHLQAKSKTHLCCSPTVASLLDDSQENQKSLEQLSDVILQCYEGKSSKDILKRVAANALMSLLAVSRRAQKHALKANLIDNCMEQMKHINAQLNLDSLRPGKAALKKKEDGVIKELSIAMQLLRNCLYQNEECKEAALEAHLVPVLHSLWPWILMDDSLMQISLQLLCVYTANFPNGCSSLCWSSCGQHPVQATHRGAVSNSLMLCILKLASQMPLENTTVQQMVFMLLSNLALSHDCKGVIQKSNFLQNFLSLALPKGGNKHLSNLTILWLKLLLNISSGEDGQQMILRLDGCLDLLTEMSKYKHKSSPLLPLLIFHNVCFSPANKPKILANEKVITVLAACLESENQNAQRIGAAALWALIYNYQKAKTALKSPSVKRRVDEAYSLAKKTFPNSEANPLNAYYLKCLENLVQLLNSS

B1: LZTR1 R810W-FLAG (other, human, UniProt Q8N653 1-840, looked up)
chain: MAGPGSTGGQIGAAALAGGARSKVAPSVDFDHSCSDSVEYLTLNFGPFETVHRWRRLPPCDEFVGARRSKHTVVAYKDAIYVFGGDNGKTMLNDLLRFDVKDCSWCRAFTTGTPPAPRYHHSAVVYGSSMFVFGGYTGDIYSNSNLKNKNDLFEYKFATGQWTEWKIEGRLPVARSAHGATVYSDKLWIFAGYDGNARLNDMWTIGLQDRELTCWEEVAQSGEIPPSCCNFPVAVCRDKMFVFSGQSGAKITNNLFQFEFKDKTWTRIPTEHLLRGSPPPPQRRYGHTMVAFDRHLYVFGGAADNTLPNELHCYDVDFQTWEVVQPSSDSEVGGAEVPERACASEEVPTLTYEERVGFKKSRDVFGLDFGTTSAKQPTQPASELPSGRLFHAAAVISDAMYIFGGTVDNNIRSGEMYRFQFSCYPKCTLHEDYGRLWESRQFCDVEFVLGEKEECVQGHVAIVTARSRWLRRKITQARERLAQKLEQEAAPVPREAPGVAAGGARPPLLHVAIREAEARPFEVLMQFLYTDKIKYPRKGHVEDVLLIMDVYKLALSFQLCRLEQLCRQYIEASVDLQNVLVVCESAARLQLSQLKEHCLNFVVKESHFNQVIMMKEFERLSSPLIVEIVRRKQQPPPRTPLDQPVDIGTSLIQDMKAYLEGAGAEFCDITLLLDGHPRPAHKAILAARSSYFEAMFRSFMPEDGQVNISIGEMVPSRQAFESMLRYIYYGEVNMPPEDSLYLFAAPYYYGFYNNRLQAYCKQNLEMNVTVQNVLQILEAADKTQALDMKRHCLHIIVHQFTKVSKLPTLWSLSQQLLLDIIDSLASHISDKQCAELGADI
notes: Stably expressed in U87 cells by lentivirus; also called LZTR1-FLAG-R810W; LZTR1 RW; not shown: FLAG tag
binds: all assays above
